From publication PMC5767185, “Arabidopsis G-Protein β Subunit AGB1 Interacts with BES1 to Regulate Brassinosteroid Signaling and Cell Elongation” (Frontiers in Plant Science, 2017)

Molecular target: T1, His-AGB1 (Arabidopsis, UniProt P49177 1-377)
T1 construct: AGB1 of Arabidopsis, full length, cloned into pCOLD-TF; as the empty pCOLD-TF vector gives His-TF, the fusion probably carries trigger factor between the His tag and AGB1 (surmised); also called His-tagged AGB1; source: E. coli (Rosetta), pCOLD-TF, purified; not shown: His, N-terminal, kept
T1 sequence (looked up): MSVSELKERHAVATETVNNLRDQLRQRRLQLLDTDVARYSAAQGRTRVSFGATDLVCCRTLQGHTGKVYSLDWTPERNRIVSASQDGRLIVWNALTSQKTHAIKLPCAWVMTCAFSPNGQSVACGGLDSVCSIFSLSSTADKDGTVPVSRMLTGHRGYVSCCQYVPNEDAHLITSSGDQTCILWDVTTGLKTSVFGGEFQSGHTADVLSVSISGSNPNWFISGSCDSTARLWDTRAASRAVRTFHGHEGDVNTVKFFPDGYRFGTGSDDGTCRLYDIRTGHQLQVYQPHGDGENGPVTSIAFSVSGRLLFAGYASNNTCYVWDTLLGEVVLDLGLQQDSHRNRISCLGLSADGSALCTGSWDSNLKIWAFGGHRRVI
Test: pull-down; GST-BES1 held on glutathione beads (MagneGST), His-AGB1 or His-TF added, lysis buffer without EDTA, 2 h at 4°C; prey detected with anti-His antibody
Conditions: both partners purified

B1: GST-BES1 (natural protein, Arabidopsis, UniProt Q9LN63 1-335, looked up)
chain: MTSDGATSTSAAAAAAAMATRRKPSWRERENNRRRERRRRAVAAKIYTGLRAQGNYNLPKHCDNNEVLKALCSEAGWVVEEDGTTYRKGHKPLPGDMAGSSSRATPYSSHNQSPLSSTFDSPILSYQVSPSSSSFPSPSRVGDPHNISTIFPFLRNGGIPSSLPPLRISNSAPVTPPVSSPTSRNPKPLPTWESFTKQSMSMAAKQSMTSLNYPFYAVSAPASPTHHRQFHAPATIPECDESDSSTVDSGHWISFQKFAQQQPFSASMVPTSPTFNLVKPAPQQLSPNTAAIQEIGQSSEFKFENSQVKPWEGERIHDVAMEDLELTLGNGKAHS
notes: BES1 of Arabidopsis, full length, cloned into pGEX-4T-1; also called GST-tagged BES1; source: E. coli (Rosetta), pGEX-4T-1, purified; not shown: GST, N-terminal, kept
- binding result: binds
